This is an account of results in US20200157236A1 (CELLDEX THERAPEUTICS, published 2020).

In general, Kd refers to a measure of binding affinity in units of concentration.

Test [1] has as its target T1, murine ALK (Table 18, 'mouse ALK binding') (mouse, UniProt P97793 19-1042, limits assumed).
T1 construct: either purified mouse ALK antigen coated in ELISA or endogenous ALK on Neuro-2a cells
In words: ELISA on purified mouse ALK or flow cytometry on Neuro-2a cells. Here is the method:
Purified mAbs were evaluated for their ability to bind murine ALK by solid-state ELISA, or flow cytometry on Neuro-2a cells that express low levels of endogenous murine ALK.
Luminescence data were plotted as a function of the log-transformed anti-ALK antibody concentration and fit to a 4-parameter non-linear regression equation.
Alternatively, Neuro-2a cells were incubated with 10-100 nM of anti-ALK antibodies, followed by a fluorescently-labeled secondary antibody. Mean fluorescence intensity (MFI) of live-gated cells treated with anti-ALK antibodies was divided by background, determined using the secondary antibody alone.
On the technique in general: An ELISA detects its analyte on a solid surface through an enzyme-linked reagent.

Test [2] has as its target T2, human ALK on the surface of NB1 cells (human, UniProt Q9UM73 21-1620).
T2 construct: ALK of NB1 cells; also called cell surface hALK; NB1 (human)
In words: flow cytometry titration on NB1 cells, steady state. Here is the method: KD was determined by flow cytometry. Titration of each antibody on NB1 cells for 2-4 hours at 4° C. was followed by incubation with a fluorescently-labeled secondary antibody. The normalized mean fluorescent intensity […] shown as “% Max binding” was plotted as a function of antibody concentration.
Flow cytometry was utilized to measure the affinity at steady state (KD) with which different ALK antibodies bind to ALK on the surface of NB1 cells (FIG. 3). Titration of each antibody on NB1 cells for 2-4 hours at 4° C. was followed by incubation with a fluorescently-labeled secondary antibody. The normalized mean fluorescent intensity (MFI) shown as “% Max binding” was plotted as a function of antibody concentration. The data were fit to a one site binding isotherm using GraphPad Prism, from which affinity values were derived.
On the technique in general: Flow cytometry measures light scatter and fluorescence of single cells or particles in a stream.

A further test addresses rat ALK, purified (rALK) (rat, UniProt P97793 19-1038 (mouse entry), limits assumed). In words: BLI (BLitz), estimated monovalent affinity, single dose kinetics. Here is the method: (§1) Kinetic measurements of the monovalent affinity of the 96 humanized ALK antibody variants (Ab351-Ab446) were collected. Affinity ranking was performed using a BLitz® System (ForteBio, Menlo Park, Calif.). Humanized anti-ALK antibodies were immobilized at 0.5 mg/mL using Protein A tips. Once baseline stability was ensured, purified ALK proteins at 70 μg/mL were added. The resulting kinetic data were fit to a single binding site equation, from which the quoted monovalent KD values were derived.
(§2) KD values for both NB1 (human) cells and Neuro2a (mouse) cells were also determined.

In test [3] the target is mouse ALK, purified (mALK) (mouse, UniProt P97793 19-1042). The test is described as above. As for the experimental part:
as §1, §2

For test [4], the target named is human ALK, purified (hALK) (human, UniProt Q9UM73 19-1038, limits assumed). Described as above. Here is the method:
as §1, §2

Residue numbers refer to the chain shown, from its start.

T2 sequence (Q9UM73 21-1620): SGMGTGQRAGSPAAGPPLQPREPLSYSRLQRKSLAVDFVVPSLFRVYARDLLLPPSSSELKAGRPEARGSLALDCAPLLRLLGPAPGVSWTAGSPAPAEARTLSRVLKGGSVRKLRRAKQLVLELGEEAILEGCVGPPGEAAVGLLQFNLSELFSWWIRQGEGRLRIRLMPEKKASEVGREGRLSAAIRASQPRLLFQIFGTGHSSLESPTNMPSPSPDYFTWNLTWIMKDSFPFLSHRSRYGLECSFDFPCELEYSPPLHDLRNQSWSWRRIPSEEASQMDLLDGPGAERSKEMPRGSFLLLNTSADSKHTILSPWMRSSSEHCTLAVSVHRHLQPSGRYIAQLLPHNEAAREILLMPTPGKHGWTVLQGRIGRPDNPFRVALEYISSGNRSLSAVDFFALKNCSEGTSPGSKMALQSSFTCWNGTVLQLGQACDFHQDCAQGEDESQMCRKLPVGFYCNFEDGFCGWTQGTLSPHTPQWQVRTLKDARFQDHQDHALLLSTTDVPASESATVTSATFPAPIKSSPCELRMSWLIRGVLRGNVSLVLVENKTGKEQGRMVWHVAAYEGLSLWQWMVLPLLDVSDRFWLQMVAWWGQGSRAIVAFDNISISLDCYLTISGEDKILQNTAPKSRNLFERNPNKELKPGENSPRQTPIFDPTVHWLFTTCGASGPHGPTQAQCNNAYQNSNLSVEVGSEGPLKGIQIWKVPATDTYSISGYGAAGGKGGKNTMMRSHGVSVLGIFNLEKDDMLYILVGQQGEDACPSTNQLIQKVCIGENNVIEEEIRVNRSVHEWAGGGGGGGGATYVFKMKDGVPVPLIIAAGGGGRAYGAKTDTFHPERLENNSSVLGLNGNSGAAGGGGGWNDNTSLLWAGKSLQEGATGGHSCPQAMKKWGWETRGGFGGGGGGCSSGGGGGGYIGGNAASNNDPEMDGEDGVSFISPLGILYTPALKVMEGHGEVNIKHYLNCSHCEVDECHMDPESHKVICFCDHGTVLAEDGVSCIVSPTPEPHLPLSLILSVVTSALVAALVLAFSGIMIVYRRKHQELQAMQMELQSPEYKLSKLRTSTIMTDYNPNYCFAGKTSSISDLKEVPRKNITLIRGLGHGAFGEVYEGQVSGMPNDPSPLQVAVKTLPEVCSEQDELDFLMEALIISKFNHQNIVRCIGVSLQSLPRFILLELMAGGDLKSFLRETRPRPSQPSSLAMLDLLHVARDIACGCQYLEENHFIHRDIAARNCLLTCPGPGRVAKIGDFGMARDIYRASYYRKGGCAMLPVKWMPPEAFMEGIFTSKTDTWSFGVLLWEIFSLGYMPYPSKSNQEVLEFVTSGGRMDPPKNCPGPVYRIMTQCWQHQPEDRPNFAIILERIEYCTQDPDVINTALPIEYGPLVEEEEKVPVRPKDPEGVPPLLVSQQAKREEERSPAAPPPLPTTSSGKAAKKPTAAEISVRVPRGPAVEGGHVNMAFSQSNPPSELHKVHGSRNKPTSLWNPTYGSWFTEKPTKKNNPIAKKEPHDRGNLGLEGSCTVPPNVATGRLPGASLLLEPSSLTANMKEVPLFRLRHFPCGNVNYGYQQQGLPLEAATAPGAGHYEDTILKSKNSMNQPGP
T1 sequence (P97793 19-1042 limits assumed): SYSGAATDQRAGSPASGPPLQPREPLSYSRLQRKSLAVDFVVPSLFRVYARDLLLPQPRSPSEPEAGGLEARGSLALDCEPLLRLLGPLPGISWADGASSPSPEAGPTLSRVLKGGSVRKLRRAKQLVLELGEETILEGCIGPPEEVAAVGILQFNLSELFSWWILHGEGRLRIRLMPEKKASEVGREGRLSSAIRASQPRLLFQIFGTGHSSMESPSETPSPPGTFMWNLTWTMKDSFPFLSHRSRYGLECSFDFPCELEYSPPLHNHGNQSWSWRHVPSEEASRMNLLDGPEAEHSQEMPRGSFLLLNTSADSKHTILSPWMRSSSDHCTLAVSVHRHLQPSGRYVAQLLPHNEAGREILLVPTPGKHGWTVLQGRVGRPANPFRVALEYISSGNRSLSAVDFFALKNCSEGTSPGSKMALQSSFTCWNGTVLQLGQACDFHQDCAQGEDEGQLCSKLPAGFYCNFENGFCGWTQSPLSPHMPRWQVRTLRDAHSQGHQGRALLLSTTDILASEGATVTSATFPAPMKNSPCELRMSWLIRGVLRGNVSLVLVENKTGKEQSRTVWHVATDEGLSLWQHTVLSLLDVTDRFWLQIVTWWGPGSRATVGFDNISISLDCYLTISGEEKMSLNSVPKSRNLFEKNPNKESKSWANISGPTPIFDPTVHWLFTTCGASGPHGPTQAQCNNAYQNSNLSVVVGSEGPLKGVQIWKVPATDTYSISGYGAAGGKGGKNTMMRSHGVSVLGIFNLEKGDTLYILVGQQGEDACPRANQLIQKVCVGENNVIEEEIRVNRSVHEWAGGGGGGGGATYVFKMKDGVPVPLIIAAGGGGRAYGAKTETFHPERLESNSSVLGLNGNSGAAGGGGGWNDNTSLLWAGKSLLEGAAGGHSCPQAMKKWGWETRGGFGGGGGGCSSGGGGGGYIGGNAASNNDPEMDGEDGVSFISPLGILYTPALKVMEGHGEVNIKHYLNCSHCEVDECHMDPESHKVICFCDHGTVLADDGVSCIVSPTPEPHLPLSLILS
mouse ALK, purified (mALK), sequence (P97793 19-1042 limits assumed): as above
human ALK, purified (hALK), sequence (Q9UM73 other isoform, or with tags, fused parts or gaps limits assumed): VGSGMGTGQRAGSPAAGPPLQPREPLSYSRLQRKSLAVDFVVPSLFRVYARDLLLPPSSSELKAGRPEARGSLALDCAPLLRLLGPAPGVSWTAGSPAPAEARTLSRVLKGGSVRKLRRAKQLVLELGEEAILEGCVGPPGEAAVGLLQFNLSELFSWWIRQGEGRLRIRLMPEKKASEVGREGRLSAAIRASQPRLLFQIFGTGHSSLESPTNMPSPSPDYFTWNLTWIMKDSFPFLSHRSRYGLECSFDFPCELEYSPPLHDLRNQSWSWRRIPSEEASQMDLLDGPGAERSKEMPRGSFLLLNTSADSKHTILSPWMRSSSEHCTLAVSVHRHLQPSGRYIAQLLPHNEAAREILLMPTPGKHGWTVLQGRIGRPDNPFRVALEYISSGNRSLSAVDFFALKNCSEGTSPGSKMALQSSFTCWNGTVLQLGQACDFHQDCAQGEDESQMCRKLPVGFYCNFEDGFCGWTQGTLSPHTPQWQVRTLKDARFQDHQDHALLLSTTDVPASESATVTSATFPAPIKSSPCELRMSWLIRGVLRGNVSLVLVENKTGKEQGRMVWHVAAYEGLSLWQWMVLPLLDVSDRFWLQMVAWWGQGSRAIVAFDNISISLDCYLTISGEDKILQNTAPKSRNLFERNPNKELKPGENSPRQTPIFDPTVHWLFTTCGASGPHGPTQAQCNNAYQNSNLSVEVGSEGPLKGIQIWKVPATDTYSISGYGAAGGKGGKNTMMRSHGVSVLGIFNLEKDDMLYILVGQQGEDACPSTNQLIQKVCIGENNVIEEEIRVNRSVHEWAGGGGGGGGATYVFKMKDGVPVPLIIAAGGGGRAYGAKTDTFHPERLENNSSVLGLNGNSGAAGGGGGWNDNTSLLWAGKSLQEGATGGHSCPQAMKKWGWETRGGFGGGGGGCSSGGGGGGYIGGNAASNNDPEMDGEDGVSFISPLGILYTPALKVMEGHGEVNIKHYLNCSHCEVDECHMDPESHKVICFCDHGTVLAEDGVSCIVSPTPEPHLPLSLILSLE
rat ALK, purified (rALK), sequence (P97793 other isoform, or with tags, fused parts or gaps limits assumed): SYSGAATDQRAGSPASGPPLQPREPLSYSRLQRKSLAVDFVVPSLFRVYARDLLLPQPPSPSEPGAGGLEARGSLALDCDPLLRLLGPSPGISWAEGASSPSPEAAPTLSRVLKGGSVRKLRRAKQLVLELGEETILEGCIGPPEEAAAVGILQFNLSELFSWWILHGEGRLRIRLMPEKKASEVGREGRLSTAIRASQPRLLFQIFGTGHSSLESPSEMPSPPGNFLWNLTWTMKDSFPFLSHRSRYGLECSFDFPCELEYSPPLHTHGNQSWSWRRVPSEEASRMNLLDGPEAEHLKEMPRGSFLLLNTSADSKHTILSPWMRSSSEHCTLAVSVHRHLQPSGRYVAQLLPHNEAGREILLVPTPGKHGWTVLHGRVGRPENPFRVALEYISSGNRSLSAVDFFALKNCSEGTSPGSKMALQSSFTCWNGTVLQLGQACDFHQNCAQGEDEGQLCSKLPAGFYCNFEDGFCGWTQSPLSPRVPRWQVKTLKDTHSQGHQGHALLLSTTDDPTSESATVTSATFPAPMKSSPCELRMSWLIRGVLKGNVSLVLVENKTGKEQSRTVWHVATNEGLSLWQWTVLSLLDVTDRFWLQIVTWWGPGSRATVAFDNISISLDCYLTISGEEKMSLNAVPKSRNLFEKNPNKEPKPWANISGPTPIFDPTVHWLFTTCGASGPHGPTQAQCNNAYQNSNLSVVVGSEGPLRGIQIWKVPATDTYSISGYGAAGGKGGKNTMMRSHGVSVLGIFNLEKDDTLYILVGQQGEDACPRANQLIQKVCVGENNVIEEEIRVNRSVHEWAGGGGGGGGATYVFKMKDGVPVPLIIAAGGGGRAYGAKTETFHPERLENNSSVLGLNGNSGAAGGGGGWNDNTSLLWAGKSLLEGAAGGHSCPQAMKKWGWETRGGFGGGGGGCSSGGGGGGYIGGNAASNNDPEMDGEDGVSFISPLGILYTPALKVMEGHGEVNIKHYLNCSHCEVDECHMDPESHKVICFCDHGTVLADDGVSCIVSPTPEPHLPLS

B1: Ab331 (antibody, V domains shown)
VH: EVQVVETGGGVVQPGKSLEITCATSGLTFSTAWMYWVRQSSDRRLEWIARIKDKSNNFASDYVESVRGRFTISRDDSRSSVYLQMNNLKEEDTATYYCTTSYGYAWGQGVMVTVSS
VL: DIQMTQSPSSMSASLGDRITITCQASQDIGNYLIWFQQKPGKSPRPLIYYATNLANGVPSRFSGSRSGSEYSLTITSLESEDMADYHCLQYKQHLTFGSGTKLEIER
notes: rodent hybridoma mAb
Turning to B1, the binding result in test [1] is “no binding”. In test [2], the Kd turned out to be 2.5 nM.

B2: Ab326 (antibody, V domains shown)
VH: QVQLQQSGAELAKPGASVKLSCKASGYTFTSYWMHWVKQRPGQGLEWIGYIKPSSGYTKYNQKFKDKATLTADKSSSTAYMQLSSLTYEDSAVYYCARDYYGSSSWFAYWGQGTLVTVSA
VL: DIVMTQSQRFMSTSVGDRVSVTCKASQNVGTNVAWYQQKPGQSPKALIYSASYRYSGVPDRFTGSGSGTDFTLTISNVQSEDLAEYFCQQYNSYPYMYTFGGGTKLEIKR
notes: rodent hybridoma mAb
B2: the Kd in test [2] is 0.35 nM; with rat ALK, purified (rALK), 35 nM; in test [3] it was 120 nM; in test [4], 69 nM.

B3: Ab322 (antibody, V domains shown)
VH: B2 VH with S31N, K52N
VL: B2 VL with I75V
notes: rodent hybridoma mAb
Take B3: the binding result in test [1] is listed as “no binding”. The molecule further returned a Kd in test [2] of 0.5 nM.
